Laboratory results: paper PMC6459735 (Journal of biomolecular structure & dynamics, 2019)

Target: the molecule itself
Test: crystal structure

B1: human Caprin-2 fragment (residues 199-329), dimerization domain (domain or fragment)
chain: GPSSPSQRREHMLKLEAEKKKLRTILQVQYVLQNLTQEHVQKDFKGGLNGAVYLPSKELDYLIKFSKLTCPERNESLSVEDQMEQSSLYFWDLLEGSEKAVVGTTYKHLKDLLSKLLNSGYFESIPVPKNAKEKEVP
modifications: Se-Met labelled (L-seleno-methionine in place of methionine) in the crystal used for the structure
Question: B1 was tested. Which “stoichiometry N” value did it give?
Answer: Its value is 2.
